Measurements published in patent US7572600B2, “Enzymatic activities in chemokine-mediated inflammation” (Chemocentryx, Inc., priority 2004, dated 2009).
Read-outs that look alike come from different tables or passages of the source. Where no end group is shown, it is not given here.

Key:
[1] = target: T1, FPRL1 (Homo sapiens, UniProt P25090); test: Receptor signaling (calcium mobilization) in L1.2-FPRL1 cells; format: cell-based; design: expressed in transfected cells; settings: for calcium mobilization in the FPRL1 transfectant: L1.2 cells stably expressing human FPRL1, undigested; for Designation and FPRL1 Activity: SHAAGtide and truncated/other variants
T1 sequence (P25090 1-351): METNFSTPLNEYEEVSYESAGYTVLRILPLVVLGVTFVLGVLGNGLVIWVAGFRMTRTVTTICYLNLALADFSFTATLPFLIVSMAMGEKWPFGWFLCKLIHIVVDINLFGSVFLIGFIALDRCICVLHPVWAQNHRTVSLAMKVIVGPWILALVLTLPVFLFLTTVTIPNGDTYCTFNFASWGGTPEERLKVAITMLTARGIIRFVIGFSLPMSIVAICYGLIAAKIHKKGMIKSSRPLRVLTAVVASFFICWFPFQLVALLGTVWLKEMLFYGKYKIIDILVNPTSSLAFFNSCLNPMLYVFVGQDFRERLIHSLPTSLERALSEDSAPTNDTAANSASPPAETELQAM
Experimental: (§1) Receptor signaling assay. For individual measurements, cells were loaded for 45 min at room temperature with 2 μM indo-1/AM (Invitrogen, Carlsbad Calif.) in culture medium, then washed with 10 ml PBS and resuspended at 10^6 cells/ml in HBSS containing 0.1% BSA. Cytosolic calcium levels were determined using a Photon Technology International fluorimeter (excitation at 350 nm, ratio of dual emission at 400 and 490 nm). For measuring calcium dose responses, cells were analyzed with a Fluorometric Imaging Plate Reader 384 (FLIPR^384) (Molecular Devices, Sunnyvale, Calif.). Cells were loaded for 1 hr at 37° C. with 5 μM fluo-4 in HBSS with 0.1% BSA, then washed, transferred to black-wall 96-well plates, and subsequently excited at 505 nm with emission recorded at 530 nm with a standard protocol provided by the manufacture. Cells were stimulated with agonists 20 s after the monitoring of fluorescence began. Data were analyzed and plotted in arbitrary units of fluorescence using Prism. To ensure that responses were specific to FPRL1, we utilized a selective small-molecule antagonist of human FPRL1, generated by ChemoCentryx, which was optimized from a high throughput compound library screening approach.
Since FPRL1 has been reported to interact with low affinity and/or potency with a spectrum of potential pathogenic ligands of viral, bacterial and endogenous origin, we performed comparative functional analyses to determine the precise functional domain for the SHAAGtide (FIG. 14). SHAAGtides containing N-terminal and C-terminal truncations and extensions were synthesized, and potencies for receptor signaling in L1.2-FPRL1 cells were tested. […] After removal of the N-terminal amino acid (Met) from SHAAGtide, its potency is reduced approximately 10 fold. Removal of the first two N-terminal amino acids (Met-Leu) totally abolished SHAAGtide's activity on FPRL1. Conversely, removal of the C-terminal three amino residues (AAG) from SHAAGtide had no effect on its activity on FPRL1. Removal of the C-terminal six residues (LSHAAG) reduced the peptide's potency only 3-fold. Many other purported naturally-occurring FPRL1 ligands, including serum amyloid A (SAA), beta-amyloid protein 42, lipoxin A4 and the bacterial tripeptide fMLP were tested.

[2] = tested on: THP-1 cells; test: THP-1 chemotaxis assay; format: cell-based, human; settings: for EC50: THP-1 cells
Experimental: Chemotaxis assay. L1.2-CCR1 transfectants, THP-1 cells, human monocytes and human neutrophils were collected by centrifugation and resuspended in HBSS containing 0.1% BSA. Chemotaxis assays were performed in 96-well ChemoTx® microplates (Neuroprobe, Rockville, Md.) as follows. Chemokines were added to the lower wells (final volume 29 μL), and 20 μL of cell suspension (5×10^6 cells/mL) was added to the polycarbonate filter (3 μm pore size for neutrophils, 5 μm for other 3 cell types). After incubation at 37° C. in the presence of 5% CO2 for 1 hr (neutrophils), 90 min (monocytes) or 2 h (THP-1 and L1.2-CCR1), cells were removed from the upper surface of the filter by scraping. Cells that migrated into the lower chamber were quantified by using the CyQuant cell proliferation assay kit (Molecular Probes, Eugene, Oreg.) and analyzed with a Tecan (Durham, N.C.) fluorimeter (excitation at 480 nm, emission at 530 nm). Data were analyzed and plotted in arbitrary units of fluorescence using Prism (GraphPad Software, San Diego, Calif.).

[3] = tested on: human neutrophils; test: Calcium mobilization in freshly isolated human neutrophils; format: cell-based
Experimental: (§2) Calcium Mobilization Assay. Cells were loaded for 1 hour with 2 μM indo-1/AM dye (Molecular Probes, Eugene, Oreg.) in culture medium, then washed with 10 ml PBS and resuspended at 10^6/ml in HBSS containing 1% FBS. Cytosolic calcium responses were determined using a Photon Technology International (Lawrenceville, N.J.) fluorimeter, with excitation at 350 nm and dual emission at 400 and 490 nm. Alternatively, cells were loaded with 5 μg/ml Fluo-4 AM dye (Molecular Probes, Eugene, Oreg.), then washed and analyzed on a Fluorometric Imaging Plate Reader 384 (FLIPR^384 Molecular Devices, Sunnyvale, Calif.), with 505 nm excitation and 530 nm emission.
as §1

[4] = tested on: human monocytes; test: Calcium mobilization in freshly isolated human monocytes; format: cell-based; settings: undigested chemokine or peptide, 100 nM (CCL23β up to 250 nM)
Experimental: as §2, §1

[5] = target: T2, CCR1 (Homo sapiens, UniProt P32246); test: Competition binding with 125I-MIP-1α on human monocytes; design: endogenous in cells; host or cells: human CD14+ monocytes from buffy coats
T2 sequence (P32246 1-355): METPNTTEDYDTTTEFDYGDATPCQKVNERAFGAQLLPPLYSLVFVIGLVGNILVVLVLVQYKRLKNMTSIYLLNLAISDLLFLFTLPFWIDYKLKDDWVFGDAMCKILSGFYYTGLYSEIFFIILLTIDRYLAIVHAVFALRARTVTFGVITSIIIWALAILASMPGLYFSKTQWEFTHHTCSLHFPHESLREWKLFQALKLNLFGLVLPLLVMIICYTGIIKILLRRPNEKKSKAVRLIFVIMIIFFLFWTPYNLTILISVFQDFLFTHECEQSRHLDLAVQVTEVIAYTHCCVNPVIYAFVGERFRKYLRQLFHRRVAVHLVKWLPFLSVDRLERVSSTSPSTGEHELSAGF
Experimental: Binding assay. Competition binding studies were conducted using monocytes, L1.2-CCR1 or L1.2-FPRL1 cells. Cells were incubated for 3 hr at 4° C. with ^125I-MIP-1α (final concentration ˜0.05 nM) or ^125I-WKYMVm (final concentration ˜0.01 nM) in buffer (25 mM HEPES, 140 mM NaCl, 1 mM CaCl2, 5 mM MgCl2 and 0.2% BSA, adjusted to pH 7.1) in the presence of increasing amounts of unlabeled chemokine. Reactions were aspirated onto PEI-treated GF/B glass filters using a cell harvester (Packard). Filters were washed twice (25 mM HEPES, 500 mM NaCl, 1 mM CaCl2, 5 mM MgCl2, adjusted to pH 7.1). Scintillant (MicroScint-10; 35 μl) was added to the filters and counted in a Packard Topcount scintillation counter. Data were analyzed and plotted using Prism (GraphPad Software, San Diego, Calif.).

[6] = target: T2, CCR1; test: Calcium mobilization in murine L1.2 cells expressing human CCR1; format: cell-based; design: expressed in transfected cells; host or cells: murine L1.2 cells (G-418 selected transfectant); settings: L1.2-CCR1 cells
Experimental: as §2, §1

[7] = undigested chemokine or peptide (100 nM)
[8] = chemokine after digestion with PMN sup #1, read-out: EC50, chemotaxis
[9] = chemokine after digestion with chymase, read-out: EC50, chemotaxis
[10] = 10 nM input chemokine, after digestion with proteases and fluids
[11] = 10 nM, undigested or recombinant chemokine

1-42 substrate peptide: synthetic 42-residue peptide consisting of the CCL23β N-terminal (1-24) and SHAAGtide (25-42) domains (MKVSVAALSCLMLVTALGSQARVTKDAETEFMMSKLPLENPV)
calcium mobilization in the FPRL1 transfectant [1]: unable to induce calcium mobilization

CCL5/RANTES: traditional CCR1 ligand chemokine
EC50 ([2]; 2 hr, recombinant undigested chemokine, read-out: EC50, chemotaxis): 0.5 nM | calcium mobilization [3, 7]: not

IGPQMTLSHAAG [CCXP4]
Designation and FPRL1 Activity [1]: Low activity

LWRRKIGPQMTLSH [CCXP11]
Designation and FPRL1 Activity [1]: Moderate

MLWRRKIGPQM [CCXP8]
Designation and FPRL1 Activity [1]: Moderate

MLWRRKIGPQMT [CCXP5]
Designation and FPRL1 Activity [1]: Moderate

MLWRRKIGPQMTLSH [CCXP3]
Designation and FPRL1 Activity [1]: High activity

MLWRRKIGPQMTLSHAAY [CCXP6]
Designation and FPRL1 Activity [1]: High activity

RRKIGPQMTLSHAAG [CCXP2]
Designation and FPRL1 Activity [1]: Low activity

WRRKIG [CCXP10]
Designation and FPRL1 Activity [1]: Low activity

WRRKIGPQM [CCXP9]
Designation and FPRL1 Activity [1]: Low activity

WRRKIGPQMTLSHAAG [CCXP7]
Designation and FPRL1 Activity [1]: Low activity

B1: CCL23β: alternatively spliced form of CCL23, 116-residue protein; recombinant, R&D Systems special order (protein, listed as Homo sapiens)
chain: MKVSVAALSCLMLVTALGSQARVTKDAETEFMMSKLPLENPVLLDMLWRRKIGPQMTLSHAAGFHATSADCCISYTPRSIPCSLLESYFETNSECSKPGVIFLTKKGRRFCANPSDKQVQVCMRMLKLDTRIKTRKN
calcium mobilization [4]: very weak responses | calcium mobilization in the FPRL1 transfectant [1]: unable to induce calcium mobilization | inhibition of 125I-MIP-1α binding [5]: lowest binding activity

B2: CCL23/CKβ8: recombinant full-length human chemokine CCL23 (22-120), 99-residue protein (protein, listed as Homo sapiens)
chain: RVTKDAETEFMMSKLPLENPVLLDRFHATSADCCISYTPRSIPCSLLESYFETNSECSKPGVIFLTKKGRRFCANPSDKQVQVCMRMLKLDTRIKTRKN
EC50 [2, 8]: 0.15 nM | EC50 [2, 9]: 0.05 nM | EC50 ([2]; chemokine after digestion with synovial fluid, read-out: EC50, chemotaxis): 0.25 nM | fold decrease of EC50 by chymase ([2]; THP-1 chemotaxis): 50 fold | calcium mobilization [4]: strong calcium responses | inhibition of 125I-MIP-1α binding [5]: moderate competitors | calcium mobilization [6, 10]: uniformly active | calcium mobilization [6, 11]: either not active or weakly active

B3: CCL3/MIP-1α: traditional CCR1 ligand chemokine; unlabelled homologous competitor in binding (protein)
chain: ADTPTACCFSYTSRQIPQNFIADYFETSSQCSKPGVIFLTKRSRQVCADPSEEWVQKYVSDLELSA
calcium mobilization [3, 7]: not and only moderate calcium responses

B4: CCL15Δ24/LKN-1: recombinant CCL15/MIP-1δ lacking the N-terminal 24 residues (68aa) (protein)
chain: SFHFAADCCTSYISQSIPCSLMKSYFETSSECSKPGVIFLTKKGRQVCAKPSGPGVQDCMKKLKPYSI
calcium mobilization [3, 7]: respond | calcium mobilization ([3]; undigested chemokine or peptide (100 nM), listed as CCL15 Δ24/leukotactin): only moderate calcium responses | calcium mobilization [6, 11]: substantially greater response

B5: CCL15/MIP-1δ: recombinant full-length human chemokine CCL15 (92aa) (protein, listed as Homo sapiens)
chain: QFINDAETELMMSKLPLENPVVLNSFHFAADCCTSYISQSIPCSLMKSYFETSSECSKPGVIFLTKKGRQVCAKPSGPGVQDCMKKLKPYSI
fold increase in chemokine potency after cleavage ([2]; THP-1 cell migration, cleavage by chymase or synovial fluid): approximately 1000 fold | EC50 ([2]; after cleavage by chymase or synovial fluid, read-out: EC50, cell migration): 0.05 to 0.06 nM | EC50 [2, 8]: 0.25 nM | EC50 [2, 9]: 0.05 nM | calcium mobilization ([3]; digestions at 30-50 nM): induced calcium mobilization | calcium mobilization [6, 10]: greater amount of calcium | calcium mobilization [6, 11]: little calcium mobilization
